Results from article PMC9368917.

Target: T1, 3xFLAG-STM0347 (Salmonella enterica serovar Typhimurium (strain not stated in the given text)) (UniProt H9L417)
T1 sequence: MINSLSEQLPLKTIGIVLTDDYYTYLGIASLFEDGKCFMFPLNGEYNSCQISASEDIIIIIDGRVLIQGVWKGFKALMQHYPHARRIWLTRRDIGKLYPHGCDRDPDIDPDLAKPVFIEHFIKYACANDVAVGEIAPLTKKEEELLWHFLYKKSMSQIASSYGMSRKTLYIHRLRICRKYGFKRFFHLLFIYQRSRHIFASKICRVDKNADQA
Assay: EMSA
Details: 10 mM Tris-HCl pH 8.3, 50 mM KCl, 1 mM MgCl2, 0.5 mM DTT, 0.5 mM EDTA, 50 ug/mL BSA, 0.2% glycerol; room temperature 20 min; 6% native PAGE in 1x TAE in ice …

CATCGCTCAAAACACTACCAGACACAGTATTCACCTGGAAAGGCTTTTTAATCAAAATGTTAGATGTAAGCAATTACGGACAGAAAAAATAGTAAAGTTTATGCCTCAAGTGTCGATAACCTGGATGACACAGGTAAGCCTGGCATAACATTGGTTATCAAAAACCTTCCAAAAGGAAAATTTTATGGCACAAGTAATCAACACTAACAGTCTGTCGCTGCTGACCCAGAATAACCTGAACAAATCCCAGTCCGCACTGGGCACCGCTATCGAGCGTCTGTCTTCTGGTCTGCGTATCAA (double strand) [fljB promoter fragment]
binding: no binding
